# B1: PlySs2: bacteriophage lysin derived from Streptococcus suis, amino acid sequence of FIG. 29 (SEQ ID NO: 1), N-terminal CHAP and C-terminal SH3 domain (protein, listed as Streptococcus suis)
# chain: MTTVNEALNNVRAQVGSGVSVGNGECYALASWYERMISPDATVGLGAGVGWVSGAIGDTISAKNIGSSYNWQANGWTVSTSGPFKAGQIVTLGATPGNPYGHVVIVEAVDGDRLTILEQNYGGKRYPVRNYYSAASYRQQVVHYITPPGTVAQSAPNLAGSRSYRETGTMTVTVDALNVRRAPNTSGEIVAVYKRGESFDYDTVIIDVNGYVWVSYIGGSGKRNYVATGATKDGKRFGNAWGTFK
# Tests used:
# [1] = system: Staphylococcus aureus; experiment: MIC, broth microdilution (CLSI M07-A9); assay type: cell-based; settings: for MIC90 / MIC90 [uM]: with reducing agent
# [2] = system: Streptococcus pyogenes, Group A; experiment: MIC, broth microdilution (CLSI M07-A9); assay type: cell-based; settings: 54 tested
# [3] = system: Streptococcus agalactiae, Group B; experiment: MIC, broth microdilution (CLSI M07-A9); assay type: cell-based; settings: 51 tested
# [4] = system: Staphylococcus epidermidis; experiment: MIC, broth microdilution (CLSI M07-A9); assay type: cell-based; settings: 11 tested
# [5] = system: Streptococcus pneumoniae; experiment: MIC, broth microdilution (CLSI M07-A9); assay type: cell-based; settings: 26 tested
# [6] = system: Streptococcus mutans; experiment: MIC, broth microdilution (CLSI M07-A9); assay type: cell-based; settings: 12 tested
# [7] = system: Listeria monocytogenes; experiment: MIC, broth microdilution (CLSI M07-A9); assay type: cell-based; settings: 12 tested
# [8] = system: Enterococcus faecalis; experiment: MIC, broth microdilution (CLSI M07-A9); assay type: cell-based; settings: 17 tested
# [9] = system: Enterococcus faecium; experiment: MIC, broth microdilution (CLSI M07-A9); assay type: cell-based; settings: 5 tested
# [10] = system: Bacillus cereus; experiment: MIC, broth microdilution (CLSI M07-A9); assay type: cell-based; settings: 10 tested
# [11] = system: Acinetobacter baumannii; experiment: MIC, broth microdilution (CLSI M07-A9); assay type: cell-based; settings: 8 tested
# [12] = system: Klebsiella spp.; experiment: MIC, sensitivity of human gut bacteria; assay type: cell-based; settings: N 8
# [13] = system: Proteus mirabilis; experiment: MIC, sensitivity of human gut bacteria; assay type: cell-based; settings: N 2
# [14] = system: Lactobacillus spp.; experiment: MIC, sensitivity of human gut bacteria; assay type: cell-based; settings: N 6
# [15] = system: Lactococcus spp.; experiment: MIC, sensitivity of human gut bacteria; assay type: cell-based; settings: N 3
# [16] = system: Staphylococcus aureus (MRSA and MSSA strains); experiment: Time kill assay, single agents at 1×MIC (CLSI); assay type: cell-based
# [17] = system: Staphylococcus aureus (MRSA and MSSA strains); experiment: Synergy time-kill assay (6 hours, combination compared to most active single agent); assay type: cell-based; settings: ½ MIC PlySs2 or ¼ MIC vancomycin alone, up to 6 hours
# [18] = system: MRSA S. aureus strains; experiment: Dual agent MIC assay (PlySs2 and daptomycin together, broth microdilution); assay type: cell-based; settings: for MIC combo: PlySs2 and daptomycin combined; for MIC alone: single-agent
# [19] = system: MRSA strain MW2 and MSSA strain ATCC 29213; experiment: MIC in the presence of surfactant (Survanta), broth microdilution; assay type: cell-based, Staphylococcus aureus; settings: range from 1.25 to 15% surfactant
# [20] = system: MRSA strain 269 (MW2); experiment: Combination MIC study in the presence of 15% surfactant (Survanta); assay type: cell-based, Staphylococcus aureus; settings: PlySs2 plus daptomycin
# [21] = system: S. aureus; experiment: Murine bacteremia model, survival; assay type: in vivo, BALB/c mice; settings: for 24 hour survival rate / 72 hour survival rate: high challenge (10^9 CFU MRSA MW2), dosing at 2 hours
# [22] = system: MRSA strain ATCC 700699 and MSSA strain ATCC 25923; experiment: microbe, parasite or virus in culture; assay type: cell-based, Staphylococcus aureus
# [23] = system: MRSA Staphylococcus aureus strain (MW2); experiment: microbe, parasite or virus in culture; assay type: cell-based
# [24] = daptomycin 50 mg/kg once daily, PlySs2 5.25 mg/kg (FIG. 27B)
# [25] = vancomycin 110 mg/kg twice daily, PlySs2 5.25 mg/kg (FIG. 27E)
molecule,measurement,setting,value
B1,MIC90,[1]; DRSA (n = 8),4
same,MIC90 [uM],[1]; DRSA (n = 8),0.15 µM
same,MIC 90%,[1]; Daptomycin-resistant (8),4
same,MIC90,[1]; LRSA (n = 5),2
same,MIC90 [uM],[1]; LRSA (n = 5),0.08 µM
same,MIC 90%,[1]; Linezolid-resistant (5),2
same,MIC90,[1]; MRSA (n = 45),4
same,MIC90 [uM],[1]; MRSA (n = 45),0.15 µM
same,MIC90,[1]; MSSA (n-28),4
same,MIC90 [uM],[1]; MSSA (n-28),0.15 µM
same,MIC 50%,[1]; Methicillin resistant (120),4 µg/mL
same,MIC 90%,[1]; Methicillin resistant (120),8 µg/mL
same,MIC Range,[1]; Methicillin resistant (120),1 to 16 µg/mL
same,MIC 50%,[1]; Methicillin susceptible (103),4 µg/mL
same,MIC 90%,[1]; Methicillin susceptible (103),8 µg/mL
same,MIC Range,[1]; Methicillin susceptible (103),1 to 16 µg/mL
same,MIC90,[1]; VISA (n = 10),32
same,MIC90 [uM],[1]; VISA (n = 10),1.2 µM
same,MIC90,[1]; VRSA (n = 14),2
same,MIC90 [uM],[1]; VRSA (n = 14),0.08 µM
same,MIC 90%,[1]; Vancomycin-intermediate (31),32
same,MIC 90%,[1]; Vancomycin-resistant (14),4
same,MIC,[1]; all strains tested including 103 MSSA and 120 MRSA isolates,8 µg/mL
same,MIC,"[1]; strain MW2, without DTT",32 µg/mL
same,MIC 50%,[2],2 µg/mL
same,MIC 90%,[2],8 µg/mL
same,MIC Range,[2],0.5 to 8 µg/mL
same,MIC 50%,[3],8 µg/mL
same,MIC 90%,[3],16 µg/mL
same,MIC Range,[3],1 to 64 µg/mL
same,MIC 50%,[4],128 µg/mL
same,MIC 90%,[4],512 µg/mL
same,MIC Range,[4],4 to 512 µg/mL
same,MIC 50%,[5],16 µg/mL
same,MIC 90%,[5],64 µg/mL
same,MIC Range,[5],1 to 64 µg/mL
same,MIC 50%,[6],64 µg/mL
same,MIC 90%,[6],256 µg/mL
same,MIC Range,[6],2 to 256 µg/mL
same,MIC 50%,[7],128 µg/mL
same,MIC 90%,[7],512 µg/mL
same,MIC Range,[7],1 to 512 µg/mL
same,MIC 50%,[8],>512 µg/mL
same,MIC 90%,[8],>512 µg/mL
same,MIC 50%,[9],>512 µg/mL
same,MIC 90%,[9],>512 µg/mL
same,MIC 50%,[10],>512 µg/mL
same,MIC 90%,[10],>512 µg/mL
same,MIC Range,[10],>512 µg/mL
same,MIC 50%,[11],>512 µg/mL
same,MIC 90%,[11],>512 µg/mL
same,MIC Range,[11],>512 µg/mL
same,CF-301 MIC,[12],>512 µg/mL
same,CF-301 MIC,[13],>512 µg/mL
same,CF-301 MIC,[14],>512 µg/mL
same,CF-301 MIC,[15],>512 µg/mL
same,time to reach bactericidal levels (≥3-log10 reduction in CFUs),"[16]; 1×MIC, 20 MSSA and 42 MRSA strains",≤ 30 minutes
same,maximal kill (log reduction),"[16]; all MRSA and MSSA strains tested, generally within the first hour of incubation",≥ 3 log
same,effectiveness alone at sub-MIC doses,[17],ineffective or poorly effective
same,Fold reduction,[18]; MRSA strain 223,4
same,MIC combo,[18]; MRSA strain 223,0.5 µg/mL
same,MIC alone,[18]; MRSA strain 223,2 µg/mL
same,Fold reduction,[18]; MRSA strain 241,2
same,MIC combo,[18]; MRSA strain 241,2 µg/mL
same,MIC alone,[18]; MRSA strain 241,4 µg/mL
same,Fold reduction,[18]; MRSA strain 263,4
same,MIC combo,[18]; MRSA strain 263,2 µg/mL
same,MIC alone,[18]; MRSA strain 263,8 µg/mL
same,Fold reduction,[18]; MRSA strain 269 (MW2),4
same,MIC combo,[18]; MRSA strain 269 (MW2),2 µg/mL
same,MIC alone,[18]; MRSA strain 269 (MW2),8 µg/mL
same,Fold reduction,[18]; MRSA strain 270,4
same,MIC combo,[18]; MRSA strain 270,2 µg/mL
same,MIC alone,[18]; MRSA strain 270,8 µg/mL
same,Fold reduction,[18]; MRSA strain 553,2
same,MIC combo,[18]; MRSA strain 553,1 µg/mL
same,MIC alone,[18]; MRSA strain 553,2 µg/mL
same,Fold reduction,[18]; MRSA strain 650,2
same,MIC combo,[18]; MRSA strain 650,4 µg/mL
same,MIC alone,[18]; MRSA strain 650,8 µg/mL
same,Fold reduction,[18]; MRSA strain 827,2
same,MIC combo,[18]; MRSA strain 827,4 µg/mL
same,MIC alone,[18]; MRSA strain 827,8 µg/mL
same,Fold reduction,[18]; MRSA strain 828,4
same,MIC combo,[18]; MRSA strain 828,2 µg/mL
same,MIC alone,[18]; MRSA strain 828,8 µg/mL
same,Fold reduction,[18]; MRSA strain 829,2
same,MIC combo,[18]; MRSA strain 829,4 µg/mL
same,MIC alone,[18]; MRSA strain 829,8 µg/mL
same,Fold reduction,[18]; MRSA strain 830,2
same,MIC combo,[18]; MRSA strain 830,2 µg/mL
same,MIC alone,[18]; MRSA strain 830,4 µg/mL
same,Fold reduction,[18]; MRSA strain 833,4
same,MIC combo,[18]; MRSA strain 833,2 µg/mL
same,MIC alone,[18]; MRSA strain 833,8 µg/mL
same,fold reduction in the effective MIC,"[18]; PlySs2 and daptomycin together, a dozen MRSA strains",2-4 fold
same,inhibition of MIC by surfactant,[19],8 fold
same,effective concentration in combination as fraction of MIC,[20],⅛
same,most dilute concentration in combination that still inhibits growth,[20],2 µg/mL
same,protection,[21]; 5 mg/kg dose,significant protection
same,dose giving survival enhancement over mock-injected control,"[21]; dose-response, as little as",0.25 mg/kg
same,24 hour survival rate,[21]; [24],56%
same,72 hour survival rate,[21]; [24],18%
same,24 hour survival rate,[21]; [25],60%
same,72 hour survival rate,[21]; [25],3%
same,survival at 72 hours,"[21]; low challenge model (up to 7×10^6 CFU MRSA MW2), single dose at 4 hours, PlySs2 1.25 mg/kg, daptomycin 2 mg/kg",13%
same,MIC in daptomycin resistant clones,[22]; over 21 days of in vitro growth,2 to 4 µg/mL
same,MIC before daptomycin resistance selection,[22]; start of serial passage,8 µg/mL
same,suppression of daptomycin resistance relative to daptomycin alone,[23]; sub-MIC PlySs2 (4 ug/ml),8 to 16 fold
same,suppression of vancomycin resistance relative to vancomycin alone,[23]; sub-MIC PlySs2 (8 ug/ml),4 to 8 fold

# Source: patent US20210008175A1, “BACTERIOPHAGE LYSIN AND ANTIBIOTIC COMBINATIONS AGAINST GRAM POSITIVE BACTERIA” (priority 2012, published 2021)
